Laboratory results published in patent publication US20230192896A1 (published 2023).

Target: free FIXa (activated Factor IX) (UniProt P00740 47-191; P00740 227-461)
Test: BLI

Binder	Kd [nM]
BIIB-9-628 (antibody, V domains shown) VH: QVQLVQSGAEVKKPGASVKVSCKASGYTFTSYYMHWVRQAPGQGLEWMGIINPSGGSTSYAQKFQGRVTMTRDTSTSTVYMELSSLRSEDTAVYYCAREPIAYGATLDLWGRGTLVTVSS VL: EIVLTQSPGTLSLSPGERATLSCRASQSVSSDYLAWYQQKPGQAPRLLIYGASSRATGIPDRFSGSGSGTDFTLTISRLEPEDFAVYYCQQYVVFPFTFGGGTKVEIK	108
BIIB-9-451 (antibody, V domains shown) VH: QLQLQESGPGLVKPSETLSLTCTVSGGSISSSSYYWGWIRQPPGKGLEWIGSISYSGSTYYNPSLKSRVTISVDTSKNQFSLKLSSVTAADTAVYYCARDSGGYYYQGFDYWGQGTLVTVSS VL: not shown	8.76
BIIB-9-558 (antibody, V domains shown) VH: EVQLVESGGGLVKPGGSLRLSCAASGFTFSSYSMNWVRQAPGKGLEWVSSISSSSSYIYYADSVKGRFTISRDNAKNSLYLQMNSLRAEDTAVYYCARSYGYGYHDFDLWGRGTLVTVSS VL: DIQMTQSPSTLSASVGDRVTITCRASQSIGSWLAWYQQKPGKAPKLLIYKASSLESGVPSRFSGSGSGTEFTLTISSLQPDDFATYYCQQAGSYSFTFGGGTKVEIK	1.1
BIIB-9-564 (antibody, V domains shown) VH: QVQLQESGPGLVKPSETLSLTCAVSGYSISSGYYWAWIRQPPGKGLEWIGSIYHSGSTYYNPSLKSRVTISVDTSKNQFSLKLSSVTAADTAVYYCARDPGYSWEYFDYWGQGTLVTVSS VL: DIQMTQSPSSLSASVGDRVTITCRASQSISSYLNWYQQKPGKAPKLLIYAASSLQSGVPSRFSGSGSGTDFTLTISSLQPEDFATYYCQQSVAVPPTFGGGTKVEIK	17.4
BIIB-9-1276 (antibody, V domains shown) VH: QLQLQESGPGLVKPSETLSLTCTVSGGSISSSSYYWGWIRQPPGKGLEWIGSIYYSGSTYYNPSLKSRVTISVDTSKNQFSLKLSSVTAADTAVYYCARDVGRTYELFDIWGQGTMVTVSS VL: DIQMTQSPSSVSASVGDRVTITCRASQGISSWLAWYQQKPGKAPKLLIYAASSLQSGVPSRFSGSGSGTDFTLTISSLQPEDFATYYCQQGNSFPITFGGGTKVEIK	32.4
BIIB-9-578 (antibody, V domains shown) VH: QLQLQESGPGLVKPSETLSLTCTVSGGSISSSSYYWGWIRQPPGKGLEWIGSISYSGSTYYNPSLKSRVTISVDTSKNQFSLKLSSVTAADTAVYYCARDKYQDYSFDIWGQGTMVTVSS VL: DIQMTQSPSSVSASVGDRVTITCRASQGIDSWLAWYQQKPGKAPKLLIYAASSLQSGVPSRFSGSGSGTDFTLTISSLQPEDFATYYCQQANFLPFTFGGGTKVEIK	4.91
BIIB-9-631 (antibody, V domains shown) VH: QVQLVQSGAEVKKPGASVKVSCKASGYTFTSYYMHWVRQAPGQGLEWMGIINPSGGSTSYAQKFQGRVTMTRDTSTSTVYMELSSLRSEDTAVYYCARAENRGDYEAWGQGTLVTVSS VL: DIQMTQSPSSVSASVGDRVTITCRASQGISRWLAWYQQKPGKAPKLLIYAASSLQSGVPSRFSGSGSGTDFTLTISSLQPEDFATYYCQQRTSFPLTFGGGTKVEIK	61.2
BIIB-9-567 (antibody, V domains shown) VH: QVQLVQSGAEVKKPGASVKVSCKASGYTFTSYYMHWVRQAPGQGLEWMGIINPSGGSTSYAQKFQGRVTMTRDTSTSTVYMELSSLRSEDTAVYYCARLGRRYYAYDGMDVWGQGTTVTVSS VL: not shown	20.6
BIIB-9-477 (antibody, V domains shown) VH: EVQLLESGGGLVQPGGSLRLSCAASGFTFSNYAMSWVRQAPGKGLEWVSAISGSGGSTYYADSVKGRFTISRDNSKNTLYLQMNSLRAEDTAVYYCARGGVYSSSWMRFWGQGTLVTVSS VL: EIVMTQSPATLSVSPGERATLSCRASQSVSSSLAWYQQKPGQAPRLLIFGASTRATGIPARFSGSGSGTEFTLTISSLQSEDFAVYYCQQDVNWPITFGGGTKVEIK	8.63
BIIB-9-1287 (antibody, V domains shown) VH: QLQLQESGPGLVKPSETLSLTCTVSGGSISSSDYYWGWIRQPPGKGLEWIGSIYYSGSTYYNPSLKSRVTISVDTSKNQFSLKLSSVTAADTAVYYCARSPRHKVRGPNWFDPWGQGTLVTVSS VL: EIVLTQSPGTLSLSPGERATLSCRASQSVSSSYLAWYQQKPGQAPRLLIYGASSRATGIPDRFSGSGSGTDFTLTISRLEPEDFAVYYCQQYHLHPTFGGGTKVEIK	0.669
BIIB-9-471 (antibody, V domains shown) VH: QVQLQESGPGLVKPSQTLSLTCTVSGGSISSGGYYWSWIRQHPGKGLEWIGYIYYSGSTYYNPSLKSRVTISVDTSKNQFSLKLSSVTAADTAVYYCARSGVSGSGSDNWFDPWGQGTTVTVSS VL: EIVLTQSPATLSLSPGERATLSCRASQSVSRYLAWYQQKPGQAPRLLIYDASNRATGIPARFSGSGSGTDFTLTISSLEPEDFAVYYCQQDYNYPFTFGGGTKVEIK	9.11
BIIB-9-612 (antibody, V domains shown) VH: QVQLVQSGAEVKKPGASVKVSCKASGYTFTSYYMHWVRQAPGQGLEWMGIINPSGGSTSYAQKFQGRVTMTRDTSTSTVYMELSSLRSEDTAVYYCARDAGYHWYGMDVWGQGTTVTVSS VL: EIVLTQSPATLSLSPGERATLSCRASQSVSRYLAWYQQKPGQAPRLLIYDASNRATGIPARFSGSGSGTDFTLTISSLEPEDFAVYYCQQSSLFPLTFGGGTKVEIK	14
BIIB-9-1268 (antibody, V domains shown) VH: QVQLVQSGAEVKKPGASVKVSCKASGYTFTSYYMHWVRQAPGQGLEWMGIINPSGGSTSYAQKFQGRVTMTRDTSTSTVYMELSSLRSEDTAVYYCARDPPSWYVFDIWGQGTMVTVSS VL: EIVMTQSPATLSLSPGERATLSCRASQSVSSYLAWYQQKPGQAPRLLIYDASNRATGIPARFSGSGSGTDFTLTISSLEPEDFAVYYCQQATVWPFTFGGGTKVEIK	51.5
BIIB-9-619 (antibody, V domains shown) VH: QVQLVQSGAEVKKPGASVKVSCKASGYTFTSYYMHWVRQAPGQGLEWMGIINPSGGSTSYAQKFQGRVTMTRDTSTSTVYMELSSLRSEDTAVYYCARDGPRVSDYYMDVWGKGTTVTVSS VL: EIVLTQSPATLSLSPGERATLSCRASQSVSSYLAWYQQKPGQAPRLLIYDASNRATGIPARFSGSGSGTDFTLTISSLEPEDFAVYYCQQRDNWPFTFGGGTKVEIK	11.9
BIIB-9-416 (antibody, V domains shown) VH: QVQLVQSGAEVKKPGASVKVSCKASGYTFTSYYMHWVRQAPGQGLEWMGIINPSGGSTSYAQKFQGRVTMTRDTSTSTVYMELSSLRSEDTAVYYCAREGPMLDYPTYSNWFDPWGQGTLVTVS VL: EIVMTQSPATLSLSPGERATLSCRASQSVSSYLAWYQQKPGQAPRLLIYDSSNRATGIPARFSGSGSGTDFTLTISSLEPEDFAVYYCQQRVVWPPTFGGGTKVEIK	2.98
BIIB-9-473 (antibody, V domains shown) VH: not shown VL: EIVLTQSPATLSLSPGERATLSCRASQSVSSYLAWYQQKPGQAPRLLIYDASNRATGIPARFSGSGSGTDFTLTISSLEPEDFAVYYCQQRSFLPYTFGGGTKVEIK	17.2

Results, then the binder that gave them:

Kd [nM]	Binder
8.99	BIIB-9-472 (antibody, V domains shown) VH: EVQLVESGGGLVKPGGSLRLSCAASGFTFSSYSMNWVRQAPGKGLEWVSSISSSSSYIYYADSVKGRFTISRDNAKNSLYLQMNSLRAEDTAVYYCARGGRYSGSWSWNIWGQGTMVTVSS VL: not shown
11.4	BIIB-9-608 (antibody, V domains shown) VH: QLQLQESGPGLVKPSETLSLTCTVSGGSISSSSYYWGWIRQPPGKGLEWIGSIYYSGSTYYNPSLKSRVTISVDTSKNQFSLKLSSVTAADTAVYYCARDRLETSEAGMDVWGQGTTVTVSS VL: not shown
30.8	BIIB-9-886 (antibody, V domains shown) VH: QVQLVQSGAEVKKPGASVKVSCKASGYTFTSYYMHWVRQAPGQGLEWMGIINPSGGSTSYAQKFQGRVTMTRDTSTSTVYMELSSLRSEDTAVYYCARDPAHSYLDAFDIWGQGTMVTVSS VL: DIQMTQSPSSVSASVGDRVTITCRASQGISSWLAWYQQKPGKAPKLLIYAASSLQSGVPSRFSGSGSGTDFTLTISSLQPEDFATYYCQQASSFPFTFGGGTKVEIK
18	BIIB-9-622 (antibody, V domains shown) VH: QVQLVQSGAEVKKPGASVKVSCKASGYTFTSYYMHWVRQAPGQGLEWMGIINPSGGSTSYAQKFQGRVTMTRDTSTSTVYMELSSLRSEDTAVYYCARDGATTVSYLSFDIWGQGTMVTVSS VL: EIVMTQSPATLSVSPGERATLSCRASQSVSSSLAWYQQKPGQAPRLLIYGASTRATGIPARFSGSGSGTEFTLTISSLQSEDFAVYYCQQHSTWPPTFGGGTKVEIK
60.2	BIIB-9-1285 (antibody, V domains shown) VH: QVQLVQSGAEVKKPGASVKVSCKASGYTFTSYYMVWVRQAPGQGLEWMGIINPSGGSTSYAQKFQGRVTMTRDTSTSTVYMELSSLRSEDTAVYYCARVPTYRYSYLAFDIWGQGTMVTVSS VL: EIVMTQSPATLSVSPGERATLSCRASQSVSSNLAWYQQKPGQAPRLLIYGASTRATGIPARFSGSGSGTEFTLTISSLQSEDFAVYYCQQASNFPPTFGGGTKVEIK
16.5	BIIB-9-588 (antibody, V domains shown) VH: QVQLVQSGAEVKKPGASVKVSCKASGYTFTSYYMHWVRQAPGQGLEWMGIINPSGGSTTYAQKFQGRVTMTRDTSTSTVYMELSSLRSEDTAVYYCARDGGGSYDYWSGYWYDVWGQGTTVTVSS VL: EIVMTQSPATLSVSPGERATLSCRASQSVSSNLAWYQQKPGQAPRLLIYGASTRATGIPARFSGSGSGTEFTLTISSLQSEDFAVYYCQQAYNWPFTFGGGTKVEIK
42.6	BIIB-9-1266 (antibody, V domains shown) VH: QVQLVQSGAEVKKPGASVKVSCKASGYTFTSYYMHWVRQAPGQGLEWMGIINPSGGSTSYAQKFQGRVTMTRDTSTSTVYMELSSLRSEDTAVYYCARDHGWAIYGMDVWGQGTTVTVSS VL: EIVMTQSPATLSLSPGERATLSCRASQSVSSYLAWYQQKPGQAPRLLIYDSSNRATGIPARFSGSGSGTDFTLTISSLEPEDFAVYYCQQRLNFPFTFGGGTKVEIK
15.8	BIIB-9-565 (antibody, V domains shown) VH: QLQLQESGPGLVKPSETLSLTCTVSGGSISSSSYYWGWIRQPPGKGLEWIGSIYYSGSTYYNPSLKSRVTISVDTSKNQFSLKLSSVTAADTAVYYCARAGMYSSYANWFDPWGQGTLVTVSS VL: EIVLTQSPATLSLSPGERATLSCRASQSVSSYLAWYQQKPGQAPRLLIYDASNRATGIPARFSGSGSGTDFTLTISSLEPEDFAVYYCQQDSNLPFTFGGGTKVEIK
